Consider one molecule from US20240092901A1.

A word on the EC50: it is the concentration that produces a half-maximal response. Higher therefore signals a need for much substance.

What all share (experiment): ELISA
The target of experiment [1] is cynomolgus Ror2 (cynomolgus).
Experiment [2] deals with human Ror2 (receptor tyrosine kinase-like orphan receptor 2) (human) (UniProt Q01974).
In another experiment the target is mouse Ror2 (mouse) (UniProt Q9Z138).
Sequence of mouse Ror2 (mouse) (Q9Z138 34-403 limits assumed): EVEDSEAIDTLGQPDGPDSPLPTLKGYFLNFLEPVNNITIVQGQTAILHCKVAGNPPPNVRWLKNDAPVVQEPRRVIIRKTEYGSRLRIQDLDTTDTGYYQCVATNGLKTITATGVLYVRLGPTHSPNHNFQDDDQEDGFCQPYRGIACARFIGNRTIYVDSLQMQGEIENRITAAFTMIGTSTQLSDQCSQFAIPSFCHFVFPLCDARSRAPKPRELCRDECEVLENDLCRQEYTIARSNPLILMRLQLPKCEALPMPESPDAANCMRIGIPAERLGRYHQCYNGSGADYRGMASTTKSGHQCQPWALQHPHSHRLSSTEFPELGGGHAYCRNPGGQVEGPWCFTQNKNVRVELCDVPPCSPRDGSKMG

Sequence of human Ror2 (receptor tyrosine kinase-like orphan receptor 2) (human) (Q01974 34-403 limits assumed): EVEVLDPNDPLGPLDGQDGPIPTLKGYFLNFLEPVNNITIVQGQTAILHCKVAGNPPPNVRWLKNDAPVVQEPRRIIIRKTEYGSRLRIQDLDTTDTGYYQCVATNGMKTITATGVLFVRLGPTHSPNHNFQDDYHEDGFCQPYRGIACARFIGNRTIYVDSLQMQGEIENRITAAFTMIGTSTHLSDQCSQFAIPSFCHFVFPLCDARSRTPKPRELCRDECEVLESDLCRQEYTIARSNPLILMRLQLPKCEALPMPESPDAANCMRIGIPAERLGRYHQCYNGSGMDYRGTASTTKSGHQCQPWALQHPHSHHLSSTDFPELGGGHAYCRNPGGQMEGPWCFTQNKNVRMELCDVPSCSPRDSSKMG

B1: conditionally active antibody BAP048 (antibody, from a related filing, V domains shown)
VH: EVQLVQSGAEVKKPGESLRISCKGSGYTFTEYTMHWVRQAPGQGLEWMGGINTNNGGTGYNQKFKGRVTISADKSISTAYLQWSSLKASDTAMYYCAHGSLYSYGNSYFDYWGQGTLVTVSS
VL: AIQLTQSPSSLSASVGDRVTITCSATSSVSYMHWYLQKPGQSPQLLIYGTSNLASGVPDRFSGSGSGTDFTLKISRVEAEDVGVYYCQQRSSYPFTFGQGTKVEIK
As to B1, the 50% effective concentration (EC50) in experiment [1] worked out at 0.327 µg/mL; in experiment [2], 0.201 µg/mL; with mouse Ror2 (mouse), 7.65 µg/mL.
